Source: publication PMC4919518

How the values were obtained:
RsAgo WT [1] = biological target: T1, RsAgo WT (Rhodobacter sphaeroides (ATCC 17025D-5), UniProt A4WYU7 1-777); assay: fluorescence polarization; 5 mM Mg2+; FP: 20 mM HEPES-KOH pH 7.5, 200 mM NaCl, 5 mM MgCl2, 0.01 mg/ml E. coli total tRNA, 0.01% NP-40, 10 pM probe, 25 C; EMSA: 20 mM HEPES-KOH pH 7.5, 200 mM NaCl, 5
T1 sequence: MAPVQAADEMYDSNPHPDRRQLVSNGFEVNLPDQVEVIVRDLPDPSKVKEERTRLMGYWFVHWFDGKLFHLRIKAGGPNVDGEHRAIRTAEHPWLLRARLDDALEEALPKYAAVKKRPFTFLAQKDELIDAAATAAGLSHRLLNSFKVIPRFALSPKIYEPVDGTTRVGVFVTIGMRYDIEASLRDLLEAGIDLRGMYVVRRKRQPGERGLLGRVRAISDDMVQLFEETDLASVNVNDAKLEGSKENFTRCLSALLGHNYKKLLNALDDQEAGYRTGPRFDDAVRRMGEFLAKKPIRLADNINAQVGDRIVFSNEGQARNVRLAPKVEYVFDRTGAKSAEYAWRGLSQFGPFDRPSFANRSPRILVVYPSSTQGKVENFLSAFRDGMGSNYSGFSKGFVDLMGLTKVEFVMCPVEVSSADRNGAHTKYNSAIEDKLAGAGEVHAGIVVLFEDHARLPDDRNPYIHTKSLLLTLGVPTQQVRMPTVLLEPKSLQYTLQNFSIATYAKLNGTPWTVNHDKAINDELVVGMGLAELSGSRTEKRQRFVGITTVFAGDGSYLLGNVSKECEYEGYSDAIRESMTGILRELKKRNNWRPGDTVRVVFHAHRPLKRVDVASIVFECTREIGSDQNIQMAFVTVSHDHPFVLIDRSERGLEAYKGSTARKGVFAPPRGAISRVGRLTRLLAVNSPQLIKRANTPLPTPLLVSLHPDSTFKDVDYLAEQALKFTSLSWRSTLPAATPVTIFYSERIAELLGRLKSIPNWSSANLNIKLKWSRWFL

RsAgo WT [2] = biological target: T1, RsAgo WT; assay: EMSA; 5 mM Mg2+; FP: 20 mM HEPES-KOH pH 7.5, 200 mM NaCl, 5 mM MgCl2, 0.01 mg/ml E. coli total tRNA, 0.01% NP-40, 10 pM probe, 25 C; EMSA: 20 mM HEPES-KOH pH 7.5, 200 mM NaCl, 5
RsAgo delN20 = biological target: T2, RsAgo delN20 (Rhodobacter sphaeroides (ATCC 17025D-5), UniProt A4WYU7 21-777, del1-20); assay: X-ray crystal structure (2 A); Mg2+ at guide phosphates 1 and 3 and L777 carboxylate; FP: 20 mM HEPES-KOH pH 7.5, 200 mM NaCl, 5 mM MgCl2, 0.01 mg/ml E. coli total tRNA, 0.01% NP-40, 10 pM probe, 25 C; EMSA: 20 mM HEPES-KOH pH 7.5, 200 mM NaCl, 5
T2 sequence: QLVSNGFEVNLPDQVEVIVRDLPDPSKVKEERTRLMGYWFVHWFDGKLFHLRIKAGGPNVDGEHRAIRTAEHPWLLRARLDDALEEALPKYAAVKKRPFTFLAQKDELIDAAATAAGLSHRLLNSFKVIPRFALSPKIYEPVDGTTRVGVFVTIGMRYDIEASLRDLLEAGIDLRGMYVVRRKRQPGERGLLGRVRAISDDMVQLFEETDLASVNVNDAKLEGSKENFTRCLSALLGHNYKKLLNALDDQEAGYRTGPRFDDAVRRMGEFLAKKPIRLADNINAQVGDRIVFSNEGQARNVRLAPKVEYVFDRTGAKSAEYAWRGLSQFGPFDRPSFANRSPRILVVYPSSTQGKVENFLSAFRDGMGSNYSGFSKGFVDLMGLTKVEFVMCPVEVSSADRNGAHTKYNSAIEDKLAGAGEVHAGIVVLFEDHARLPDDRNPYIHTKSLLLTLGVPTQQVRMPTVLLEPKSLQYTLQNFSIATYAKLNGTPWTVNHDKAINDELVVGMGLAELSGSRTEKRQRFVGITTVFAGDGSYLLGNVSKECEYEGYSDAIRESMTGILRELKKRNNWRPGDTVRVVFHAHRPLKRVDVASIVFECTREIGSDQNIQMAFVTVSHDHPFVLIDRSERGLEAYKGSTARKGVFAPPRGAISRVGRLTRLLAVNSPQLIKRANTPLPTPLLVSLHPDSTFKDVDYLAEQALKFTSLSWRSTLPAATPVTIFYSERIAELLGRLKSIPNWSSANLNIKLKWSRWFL

RsAgo delP45-W63 = biological target: T3, RsAgo delP45-W63 (Rhodobacter sphaeroides (ATCC 17025D-5), UniProt A4WYU7 1-777, del45-63); assay: EMSA; RsAgo-guide RNA complex titrated on target DNA; FP: 20 mM HEPES-KOH pH 7.5, 200 mM NaCl, 5 mM MgCl2, 0.01 mg/ml E. coli total tRNA, 0.01% NP-40, 10 pM probe, 25 C; EMSA: 20 mM HEPES-KOH pH 7.5, 200 mM NaCl, 5
T3 sequence: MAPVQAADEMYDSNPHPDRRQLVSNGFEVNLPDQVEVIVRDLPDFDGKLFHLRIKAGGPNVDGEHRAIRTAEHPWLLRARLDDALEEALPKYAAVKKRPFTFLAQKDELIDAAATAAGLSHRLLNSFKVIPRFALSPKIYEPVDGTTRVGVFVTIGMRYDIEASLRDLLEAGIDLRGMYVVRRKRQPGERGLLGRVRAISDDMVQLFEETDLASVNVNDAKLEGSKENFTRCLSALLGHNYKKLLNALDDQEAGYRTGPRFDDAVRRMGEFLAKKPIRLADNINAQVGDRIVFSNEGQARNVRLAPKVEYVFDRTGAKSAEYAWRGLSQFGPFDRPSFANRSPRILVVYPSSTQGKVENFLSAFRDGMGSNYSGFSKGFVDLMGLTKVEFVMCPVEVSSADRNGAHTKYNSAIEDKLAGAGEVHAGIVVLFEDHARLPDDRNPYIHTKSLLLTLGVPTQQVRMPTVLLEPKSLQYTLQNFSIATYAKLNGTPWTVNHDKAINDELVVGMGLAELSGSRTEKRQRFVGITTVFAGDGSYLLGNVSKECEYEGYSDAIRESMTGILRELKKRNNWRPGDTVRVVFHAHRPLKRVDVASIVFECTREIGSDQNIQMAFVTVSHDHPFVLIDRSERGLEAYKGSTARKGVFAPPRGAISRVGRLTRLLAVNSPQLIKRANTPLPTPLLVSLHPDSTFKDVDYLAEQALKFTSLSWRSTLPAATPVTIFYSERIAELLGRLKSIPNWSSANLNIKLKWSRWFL

B1: 5'A-RNA, FAM (ssRNA)
RNA: AUACAACCUACUACCUCG
modifications: 5'-phosphate
Work on B1 yielded a Kd (RsAgo WT [1]) of 24.8 ± 1.7 nM.

B2: 5'P-RNA/DNA (RR/DD) (DNA:RNA)
RNA: UUACAACCUACUACCUCG
DNA: CGAGGTAGTAGGTTGTAA
modifications: 5'-phosphate on guide
B2: binds (RsAgo WT [2]).

B3: 5'C-RNA, FAM (ssRNA)
RNA: CUACAACCUACUACCUCG
modifications: 5'-phosphate
With B3 the Kd (RsAgo WT [1]) was 67 ± 3.5 nM.

B4: 5'P-DNA, FAM (ssDNA)
DNA: TTACAACCTACTACCTCG
modifications: 5'-phosphate
In the case of B4, the Kd (RsAgo WT [1]) is reported as 42.6 ± 3.4 nM.

B5: 5'G-RNA, FAM (ssRNA)
RNA: GUACAACCUACUACCUCG
modifications: 5'-phosphate
In the case of B5, the Kd (RsAgo WT [1]) is reported as 181 ± 13.3 nM.

B6: 18-nt guide RNA/18-nt target DNA (crystal) (DNA:RNA)
RNA: UUACAACCUACUACCUCG
DNA: CGAGGTAGTAGGTTGTAA
modifications: 5'-phosphate on guide
B6: binds (RsAgo delN20).

B7: 5'OH-RNA, FAM (ssRNA)
RNA: UUACAACCUACUACCUCG
modifications: 5'-OH
B7 showed a Kd (RsAgo WT [1]) of 1140 ± 54 nM.

B8: guide 5'P-RNA + 70-base target DNA (DNA:RNA)
RNA: UUACAACCUACUACCUCG
DNA: TAAAATCTTAAAGTTATTATTTCTATACGAGGTAGTAGGTTGTAATTATCACAATTTATAGTAGTATTAA
modifications: 5'-phosphate on guide
B8: no binding (RsAgo delP45-W63).
